B1: Histidine--tRNA ligase, cytoplasmic, residues 8 to 45; numbered along this chain, P12081 (parent)
chain: EELVKLQGERVRGLKQQKASAELIEEEVAKLLKLKAQL

± gives the uncertainty stated by the source.

Variants of B1 are the subject of this series. The experiment in a line: abundance fitness (aPCA) (normalised: wild type 0, dead -1); higher = more abundant; growth selection in yeast, the domain comes from the species named. The settings on record: Homo sapiens.
In the case of EELPKLQGERVRGLKQQKASAELIEEEVAKLLKLKAQL [V4P], the abundance fitness is -0.658 ± 0.092.
Turning to EELDKLQGERVRGLKQQKASAELIEEEVAKLLKLKAQL [V4D], the abundance fitness was -0.01 ± 0.13.
Take EELKKLQGERVRGLKQQKASAELIEEEVAKLLKLKAQL [V4K]: the abundance fitness is -0.568 ± 0.16.
Turning to EELHKLQGERVRGLKQQKASAELIEEEVAKLLKLKAQL [V4H], the abundance fitness is -0.463 ± 0.089.
In the case of EELNKLQGERVRGLKQQKASAELIEEEVAKLLKLKAQL [V4N] it was -0.139 ± 0.094; in that of EELGKLQGERVRGLKQQKASAELIEEEVAKLLKLKAQL [V4G], -0.227 ± 0.073; in that of EELIKLQGERVRGLKQQKASAELIEEEVAKLLKLKAQL [V4I], -0.013 ± 0.084.
Take EETVKLQGERVRGLKQQKASAELIEEEVAKLLKLKAQL [L3T]: the abundance fitness was -0.024 ± 0.087.
In the case of EEVVKLQGERVRGLKQQKASAELIEEEVAKLLKLKAQL [L3V] it was -0.366 ± 0.074; in that of EEYVKLQGERVRGLKQQKASAELIEEEVAKLLKLKAQL [L3Y], -0.549 ± 0.077; in that of EEQVKLQGERVRGLKQQKASAELIEEEVAKLLKLKAQL [L3Q], 0.153 ± 0.1.
Turning to EEPVKLQGERVRGLKQQKASAELIEEEVAKLLKLKAQL [L3P], the abundance fitness is -0.729 ± 0.082.
As to EEWVKLQGERVRGLKQQKASAELIEEEVAKLLKLKAQL [L3W], the abundance fitness is -1.54 ± 0.12.
For EEAVKLQGERVRGLKQQKASAELIEEEVAKLLKLKAQL [L3A], the abundance fitness is -0.162 ± 0.069.
As to EEIVKLQGERVRGLKQQKASAELIEEEVAKLLKLKAQL [L3I], the abundance fitness is -0.086 ± 0.095.
On to EEMVKLQGERVRGLKQQKASAELIEEEVAKLLKLKAQL [L3M], for which the abundance fitness was found to be 0.156 ± 0.089.
Consider EENVKLQGERVRGLKQQKASAELIEEEVAKLLKLKAQL [L3N], for which the abundance fitness is -0.287 ± 0.096.
In the case of EEGVKLQGERVRGLKQQKASAELIEEEVAKLLKLKAQL [L3G], the abundance fitness is -0.45 ± 0.1.
Take EEKVKLQGERVRGLKQQKASAELIEEEVAKLLKLKAQL [L3K]: the abundance fitness was -0.088 ± 0.11.
With EEFVKLQGERVRGLKQQKASAELIEEEVAKLLKLKAQL [L3F], the abundance fitness is -0.341 ± 0.099.
For the variant EEHVKLQGERVRGLKQQKASAELIEEEVAKLLKLKAQL [L3H], the abundance fitness is -0.362 ± 0.095.
As for EECVKLQGERVRGLKQQKASAELIEEEVAKLLKLKAQL [L3C], the figure is -0.896 ± 0.098.
With EEEVKLQGERVRGLKQQKASAELIEEEVAKLLKLKAQL [L3E], the abundance fitness was found to be 0.203 ± 0.091.
For the variant EESVKLQGERVRGLKQQKASAELIEEEVAKLLKLKAQL [L3S], the abundance fitness is -0.066 ± 0.067.
As to EERVKLQGERVRGLKQQKASAELIEEEVAKLLKLKAQL [L3R], the abundance fitness was -0.258 ± 0.12.
Regarding EEDVKLQGERVRGLKQQKASAELIEEEVAKLLKLKAQL [L3D], the abundance fitness is -0.454 ± 0.11.
Take FELVKLQGERVRGLKQQKASAELIEEEVAKLLKLKAQL [E1F]: the abundance fitness was -0.386 ± 0.24.
For VELVKLQGERVRGLKQQKASAELIEEEVAKLLKLKAQL [E1V], the abundance fitness is -0.661 ± 0.086.
In the case of LELVKLQGERVRGLKQQKASAELIEEEVAKLLKLKAQL [E1L], the abundance fitness was -0.687 ± 0.098.
As for WELVKLQGERVRGLKQQKASAELIEEEVAKLLKLKAQL [E1W], the figure is -0.537 ± 0.17.
As for HELVKLQGERVRGLKQQKASAELIEEEVAKLLKLKAQL [E1H], the figure is -1.02 ± 0.45; as for IELVKLQGERVRGLKQQKASAELIEEEVAKLLKLKAQL [E1I], -0.132 ± 0.16; as for KELVKLQGERVRGLKQQKASAELIEEEVAKLLKLKAQL [E1K], -0.165 ± 0.15.
Consider RELVKLQGERVRGLKQQKASAELIEEEVAKLLKLKAQL [E1R], for which the abundance fitness is -0.992 ± 0.2.
For MELVKLQGERVRGLKQQKASAELIEEEVAKLLKLKAQL [E1M], the abundance fitness is -0.139 ± 0.15.
Regarding SELVKLQGERVRGLKQQKASAELIEEEVAKLLKLKAQL [E1S], the abundance fitness is -0.737 ± 0.14.
As to AELVKLQGERVRGLKQQKASAELIEEEVAKLLKLKAQL [E1A], the abundance fitness was -0.62 ± 0.12.
Regarding CELVKLQGERVRGLKQQKASAELIEEEVAKLLKLKAQL [E1C], the abundance fitness is -1.18 ± 0.46.
For TELVKLQGERVRGLKQQKASAELIEEEVAKLLKLKAQL [E1T], the abundance fitness is -0.692 ± 0.11.
Consider YELVKLQGERVRGLKQQKASAELIEEEVAKLLKLKAQL [E1Y], for which the abundance fitness was -1.05 ± 0.24.
In the case of DELVKLQGERVRGLKQQKASAELIEEEVAKLLKLKAQL [E1D] it was -0.377 ± 0.14; in that of EVLVKLQGERVRGLKQQKASAELIEEEVAKLLKLKAQL [E2V], -0.762 ± 0.085.
For the variant EALVKLQGERVRGLKQQKASAELIEEEVAKLLKLKAQL [E2A], the abundance fitness was -0.665 ± 0.089.
In the case of EYLVKLQGERVRGLKQQKASAELIEEEVAKLLKLKAQL [E2Y] it was -0.452 ± 0.11.
Turning to ETLVKLQGERVRGLKQQKASAELIEEEVAKLLKLKAQL [E2T], the abundance fitness is -0.591 ± 0.081.
As for EPLVKLQGERVRGLKQQKASAELIEEEVAKLLKLKAQL [E2P], the figure is -0.9 ± 0.11; as for ELLVKLQGERVRGLKQQKASAELIEEEVAKLLKLKAQL [E2L], -0.632 ± 0.094.
In the case of ESLVKLQGERVRGLKQQKASAELIEEEVAKLLKLKAQL [E2S] it was -0.327 ± 0.085.
For the variant EWLVKLQGERVRGLKQQKASAELIEEEVAKLLKLKAQL [E2W], the abundance fitness is -0.97 ± 0.098.
As for EQLVKLQGERVRGLKQQKASAELIEEEVAKLLKLKAQL [E2Q], the figure is -0.472 ± 0.11; as for ERLVKLQGERVRGLKQQKASAELIEEEVAKLLKLKAQL [E2R], -0.661 ± 0.1; as for ECLVKLQGERVRGLKQQKASAELIEEEVAKLLKLKAQL [E2C], -1.08 ± 0.3.
Turning to EILVKLQGERVRGLKQQKASAELIEEEVAKLLKLKAQL [E2I], the abundance fitness is -0.369 ± 0.087.
With EMLVKLQGERVRGLKQQKASAELIEEEVAKLLKLKAQL [E2M], the abundance fitness was -0.636 ± 0.11.
In the case of EKLVKLQGERVRGLKQQKASAELIEEEVAKLLKLKAQL [E2K] it was -0.703 ± 0.16; in that of EHLVKLQGERVRGLKQQKASAELIEEEVAKLLKLKAQL [E2H], -0.195 ± 0.079; in that of EFLVKLQGERVRGLKQQKASAELIEEEVAKLLKLKAQL [E2F], -0.274 ± 0.28.
Take ENLVKLQGERVRGLKQQKASAELIEEEVAKLLKLKAQL [E2N]: the abundance fitness was -0.049 ± 0.11.
Consider EGLVKLQGERVRGLKQQKASAELIEEEVAKLLKLKAQL [E2G], for which the abundance fitness was -0.868 ± 0.2.

Values taken from the Human Domainome abundance scans (Beltran et al. 2025).
